In patent US20260028608A1 (HANSA BIOPHARMA, published 2026):

What was measured:
Test in all cases: cell-based or functional assay
[1] = biological target: Humira (Abbvie), human IgG1
[2] = biological target: XGEVA (Amgen), human IgG2
[3] = biological target: XGEVA (Amgen), human IgG2; remark: listed apart in the source
[4] = biological target: Humira (Abbvie), human IgG1; remark: listed apart in the source
[5] = biological target: human IgG3 from Sigma (15654 Lot #SLBW0899) (human)
[6] = biological target: human IgG4 from Abcam (ab90286 Lot #GR3180469) (human)

B1: pCART242, a variant IdeZ polypeptide of the invention (enzyme)
chain: MSVWTKGVTPPEQFTQGEDVIHAPYLAHQGWYDITKAFNGKDDLLCGAATAGNMLHWWFDQNKTEIEAYLSKHPEKQKIIFRNQELFDLKAAIDTKDSQTNSQLFNYFRDKAFPNLSARQLGVMPDLVLDMFINGYYLNVFKTQSTDVNRPYQDKDKRGGIFDAVFTRGNQTTLLTARHDLKNKGLNDISTIIKQELTEGRALALSHTYANVSISHVINLWGADFNAEGNLEAIYVTDSDANASIGMKKYFVGINAHGHVAISAKKIEGENIGAQVLGLFTLSSGKDIWQKLSGGGHHHHHH
[1]
  Conc. of enzyme for cleavage of 1st IgG1 heavy chain, IgG to scIgG (SDS-PAGE): ~1.5 ng/mL
  Conc. of enzyme for cleavage of 2nd IgG1 heavy chain, scIgG to F(ab')2 (SDS-PAGE): ~40 ng/mL
[2]
  Conc. of enzyme for cleavage of 1st IgG2 heavy chain, IgG to scIgG (SDS-PAGE): ~10 ng/mL
  Conc. of enzyme for cleavage of 2nd IgG2 heavy chain, scIgG to F(ab)2 (SDS-PAGE): ~400 ng/mL

B2: pCART207, a variant IdeZ polypeptide (enzyme)
chain: MDDYQRNATEAYAKEVPHQITSVWTKGVTPPEQFTQGEDVIHAPYLAHQGWYDITKAFDGKDNLLCGAATAGNMLHWWFDQNKTEIEAYLSKHPEKQKIIFRNQELFDLKAAIDTKDSQTNSQLFNYFRDKAFPNLSARQLGVMPDLVLDMFINGYYLNVFKTQSTDVNRPYQDKDKRGGIFDAVFTRGDQTTLLTARHDLKNKGLNDISTIIKQELTEGRALALSHTYANVSISHVINLWGADFNAEGNLEAIYVTDSDANASIGMKKYFVGINAHGHVAISAKKIEGENIGAQVLGLFTLSSGKDIWQKLS
[1]
  Approximate EC50 value, i.e. equal amounts of scIgG and F(ab')2 (SDS-PAGE): ~40 ng/mL
  Conc. of enzyme for cleavage of 1st IgG1 heavy chain, IgG to scIgG (SDS-PAGE): ~1.5 ng/mL
  Conc. of enzyme for cleavage of 2nd IgG1 heavy chain, scIgG to F(ab')2 (SDS-PAGE): ~120 ng/mL
[2]
  Approximate EC50 value, i.e. equal amounts of scIgG and F(ab')2 (SDS-PAGE): ~1100 ng/mL
  Conc. of enzyme for cleavage of 1st IgG2 heavy chain, IgG to scIgG (SDS-PAGE): ~40 ng/mL
  Conc. of enzyme for cleavage of 2nd IgG2 heavy chain, scIgG to F(ab)2 (SDS-PAGE): ~3300 ng/mL

B3: N240, a variant IdeZ polypeptide of the invention (enzyme)
chain: MDDYQRNATEAYAKEVPHQITSVWTKGVTPPEQFTQGEDVIHAPYLAHQGWYDITKAFNGKDDLLCGAATAGNMLHWWFDQNKTEIEAYLSKHPEKQKIIFRNQELFDLKAAIDTKDSQTNSQLFNYFRDKAFPNLSARQLGVMPDLVLDMFINGYYLNVFKTQSTDVNRPYQDKDKRGGIFDAVFTRGNQTTLLTARHDLKNKGLNDISTIIKQELTEGRALALSHTYANVSISHVINLWGADFNAEGNLEAIYVTDSDANASIGMKKYFVGINAHGHVAISAKKIEGENIGAQVLGLFTLSSGKDIWQKLS
[3]
  IgG2 EC50 F(ab')2 (SDS-PAGE, visual estimate): 120 ng/mL
  IgG2 EC50 scIgG (SDS-PAGE, visual estimate): 4.6 ng/mL
[4]
  IgG1 EC50 F(ab')2 (SDS-PAGE, visual estimate): 14 ng/mL
  IgG1 EC50 scIgG (SDS-PAGE, visual estimate): 0.5 ng/mL
[5]
  IgG3 EC50 F(ab')2 (SDS-PAGE, visual estimate): 15 ng/mL
  IgG3 EC50 scIgG (SDS-PAGE, visual estimate): 7 ng/mL
[6]
  IgG4 EC50 F(ab')2 (SDS-PAGE, visual estimate): 62 ng/mL
  IgG4 EC50 scIgG (SDS-PAGE, visual estimate): 2 ng/mL

B4: pCART229, a variant IdeZ polypeptide (enzyme)
chain: MDDYQRNATEAYAKEVPHQITSVWTKGVTPPEQFTQGEDVIHAPYLAHQGWYDITKAFDGKDNLLCGAATAGNMLHWWFDQNKTEIEAYLSKHPEKQKIIFRNQELFDLKAAIDTKDSQTNSQLFNYFRDKAFPNLSARQLGVMPDLVLDMFINGYYLNVFKTQSTDVNRPYQDKDKRGGIFDAVFTRGNQTTLLTARHDLKNKGLNDISTIIKQELTEGRALALSHTYANVSISHVINLWGADFNAEGNLEAIYVTDSDANASIGMKKYFVGINAHGHVAISAKKIEGENIGAQVLGLFTLSSGKDIWQKLS
[1]
  Approximate EC50 value, i.e. equal amounts of scIgG and F(ab')2 (SDS-PAGE): ~40 ng/mL
  Conc. of enzyme for cleavage of 1st IgG1 heavy chain, IgG to scIgG (SDS-PAGE): ~1.5 ng/mL
  Conc. of enzyme for cleavage of 2nd IgG1 heavy chain, scIgG to F(ab')2 (SDS-PAGE): ~120 ng/mL
[2]
  Approximate EC50 value, i.e. equal amounts of scIgG and F(ab')2 (SDS-PAGE): ~1100 ng/mL
  Conc. of enzyme for cleavage of 1st IgG2 heavy chain, IgG to scIgG (SDS-PAGE): ~40 ng/mL
  Conc. of enzyme for cleavage of 2nd IgG2 heavy chain, scIgG to F(ab)2 (SDS-PAGE): ~3300 ng/mL
